# According to the nanobody polyreactivity screen of Harvey et al. (2022):
# Experiment: yeast display, Sf9 membrane polyspecificity reagent, FACS + sequencing; frameworks hold sequencing errors
# Procedure, shortened: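 Using colony PCR, genes from sorted yeast display clones were amplified, then sequenced on MiSeq at 2 × 250 and filtered by CDR length. The clones had been stained with 10% biotinylated, detergent-solubilized Sf9 membrane reagent for 1 hour at 4 °C and sorted by FACS into low and high (top ~1%) gates on anti-HA and streptavidin fluorescence. Polyreactivity labels come from the gate of origin.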
row,Sequence,polyreactivity (PSR sort gate)
1,QVQLVDSGGGLVQAGGSLRLRCAASGRNFGTNAMGWYRPAPGKERELVATITRGGGNTYYADSVKGRFTISRDNAKNTVYLQMNSLKPEDTAVYYCAAGVIFYVGTRVYAYDYWGQGTQLTVSS,low polyreactivity
2,QVQLVESGGGLVQAGGSLRLSCAASGRIFRDYVMGWYRQAPGKERELVAAITQRGGSTYYADSVKGRFTISRDNAKNTVYLQLNSLKPEDTAVYYCNARWYRYGTGGVGYGGYDYWGQGTQVTVSS,low polyreactivity
3,QVQLQESGGGLVQAGGSLRLSCAASGSISGPHVMGWYRQAPGKEREFVAAINVGANTYYADNVKGRFTISRDNANNTVYLQMNSLKPEDTAVYYCAAVYYGDIGHEYWGQGTQVTVSC,low polyreactivity
4,QVQLVESGGGLVQAGGSLRLSCAASGPTFWVYAMGWNRQAPGKERELVAAISRSGVSTYYADSVKGRFTISRDNAKNTVYLQMNSLKPEDTAVYYCAAPLIYTPLKYHYWGQGTQVTVSS,low polyreactivity
5,QVQLVESGGGLVQAGGSLRLSCAASGRIFGVYAMGWYRQAPGKERELVAAITRGASTYYADSVKGRFTISRDNAKNTVYLQMNSLKPEDCAVYYCAVSQYRGIYRMDYWGQGTQVTVSS,high polyreactivity
6,QVQIVESGGGLVQAGGSLRLSCAASGRTFYYNAMGWYRQAPGKERELVAAITWSGGGTYYADSVKGRFTISRDNAKNTVYLQMNSLKPEDTAVYYCAKTPGWTDYDYWGQGTQVTVSS,high polyreactivity
7,QVQLVESGGGLVQAGGSLRLSCAASGSIFSFYSMGWYRQAPGKERELVSGITWSGGSTYYADSVKGRFTISRDNAKNTVYLQMNSLKPEDTAVYYCAKTKWYYWYTSFPSVQSYDYWGQGTHVTVSS,high polyreactivity
8,QVQLVESGGGLVQAGGSLRLSCAASGRTFAVYAMGWYRQAPGKERELVAAISSTGGTYYADSVKGRFTISRDNAKNTVYLQMNSLKPEDTAVYYCAATFIQVVVNVQLYDYDYWGQGTQVTVSS,low polyreactivity
9,QVQLVESGGGLVQAGGSLRLSCPASGSTFRYYAMAWYRQAPGKERELVAGISSSGGSTYYADSVKGRFTISRDNAKNTVYLQMNSLKPEDTAVYYCNAARGTSRSLAVFADYDYWGQGTQVTVSS,high polyreactivity
10,QVQLQESGGGLVQAGGSLRLSCAVSGTIFFPLDMGWYRQAPGRELEYVAAIAEGTSTYYADSVKGRFTISRDNAKNTVYPQMYSLKPEDTAVYYCAAYRSTPQQFHYWGQGTQVTVSS,high polyreactivity
11,QVQLVESGGGLVQAGGSLRLSCAASGRIFDYNTMGWYRQAPGKERELVAAITGGTGSTYYADSVKGRFTISRDNAKNTVYLHMNSLKPEDTAVYYCAAGFHKRVTPEILYDFWGQGTQVTVSS,low polyreactivity
12,QVQLVESGGGLVQAGGSVRLSCAASGSTFYHYALGWYRQAPGKERELVAAISWYGGSTYYADSVKGRFTISRDNAKNTVYLQMNSLKPEDTAVYYCAARGRARQRTSFEYWGQGTQVTVSS,high polyreactivity
13,QVQLVESGGGLVQAGGSLRLSCAASGRTFVYYAMGWYRQAPGKERELVASISSVGTTKYADSVKGRFTISRDNAKNTVYLQMNSLKPEDTAVYYCAAVPLSRNIFDSWGQGTQVTVSS,low polyreactivity
14,QVQLVESGGGLVQAGGSLRLSCAAYGSILRSNAMGWYRQAPGKERELVAVISNDDSTYYADSVKGRFTISRDNAKNTVYLQMNSLKPEDTAVYYCNAVYYYFFRWNPIYDSWGQGTQVTVSS,low polyreactivity
15,QVQLVESGGGLVQAGGSLRLSCAASGRIFFVNAMGWYRQAPGKERELVAAISSGGSTNYADSVKGRFTISRDNAKNTVYLQMNSLKPEDTAVYYCASSHYRYGTQGYDYWGQGTQVTVSS,low polyreactivity
16,QVQLVESGGGLVQAGGSLRLSCAASGSIFVRNAMGWCRQAPGKERELVAAITARGGSTYYADSVKGRFTISRDNAKNTVYLQMNSLKPEDTAVYYCARSYYYRGWAQWRYDYWGQGTQVTVSS,high polyreactivity
17,QVQLVESGGGLVQAGGSLRLSCAGSGSSFAWNDMGWYRHAPGIERALVAAISTSDGSTYYADSVKGRFTISRDNAKNTVYLQMNSLNPEDTAVYYCAADVTRVFYGLYTGEYDYWGLGTQVTVSS,low polyreactivity
18,QVQLVESGGGLVQAGGSLRLSCAASGSTFSYNAMGWYRQAPGKERELVAAFSFISGSTYYADSVKGRFTISRDNAKNTVYLQMNSLKPEDTAVYFCAKRYRLRGRYDYWGQGTQVTVSS,high polyreactivity
19,QDQLVESGGGLLQAGASLRLSCAASGFIFDSYAIGWDRQAPGKERELVAAITSSGSSTYYADSVKGRFTISRDNAKNTVYLQMNSLKPEDTAVYYCNAVYSATVVAWRFGYWGQGTQVTVSS,high polyreactivity
20,QVQLVESGAGLVQAGGSLRLSCAASGSIFIHYAMGWYRQARGKERELVAAITGDGNTTYADSVKGRFTISRDNAQNTVNLQINSLKPEDTAVYYCAVTIVDYYWAFDYWGQGTQVTVSS,low polyreactivity
21,QVQLVESGGGLVQAGGSLRLSCAASGRTFRIYAMGWYRQAPGKERELVAAINSGGTTNYADSVKGRFTISRDNAKNTVYLQMISLKPEDTAVYYCAVRYWKTLSHFSYDYWGQGTQVTVSS,low polyreactivity
22,QVQLVDSVGGLVQAGGSLRLSCAASGFTFYYNAMGLYRQAPGKERELVAAITSSGGSTYYADSVKGRFTISRDNAKNTVYLQMNSLKPEDTAVYYCAAVVYYRGYTYNYWGQGTQVTVSS,high polyreactivity

row,Sequence,polyreactivity (PSR sort gate)
1,QVQLVESGGGLVQAGGSLRLSCAASGSIFYTNAMGWYRQAPGKERELVASIRTGGSTNYADSVKGRFTISRDNAKNTVYLQMNSLKPEDTAVYYCNADDPDYHGSIDDLDYDYWGQGTQVTVSS,low polyreactivity
2,QVQLVESGGGLVQAGGSLRLSCAASGSIFWKYAMGWYRQAPGKERELVAAISDGVSTNYADSVKGRFTISRDNAQNTVYLQMNSLKPEDTAVYYCNAETRERDPTREFDYWGQGTQVTVSS,low polyreactivity
3,QVQLVESGGGLVQAGGSLRLSCAASGSIFQGNAMGWYRQAPGKERELVAAISSRGGTTYYADSVKGRFTISRDNAKNTVYLQMNSLKPEDTAVYYCARDSGYYWYYRYGYWGQGTQVTVSS,high polyreactivity
4,QVQLVESGGGLVQAGASLRISCAASGYTFYANAMGWYIQAPGKEREFVASITWSGGSTYYADSVKGRFTISRDNAKNTVYLQMNSLKPEDTAVYYCAAESWFKYDYWGQGTQVTLSS,low polyreactivity
5,QVQLVESGGGLVQAGRSLRLSCAASGRIFSRYTMGWYRQAPGKERELVAANSYRGGSTYYADSVKGRFTISRDNAKNTVYLQMNSLKPEDTEVYYCAARVQAIYRYDYCGQGTQVTVSS,high polyreactivity
6,QVHLVESGGGLVQAGGSLRLSCAASGRTFVYYAMGWYRQAPGKERELVAAITSVGSTYYADSVKGRFTISRDNAKNTVYLQMNSLKPEDTAVYYCAKDTWAYPYYWPYDDYWGQGTQVTVSS,low polyreactivity
7,QVQLVESGGGLVQPGGILRLSCAASGYTFQVYAMGWYRQAPGKEREMVASIRWRGGRTYYADSVKGRFTISRDNAKNTVYLQMNSLKPEDTAVYYCAARQYVIYQTYYTYYYWGQGTQVSVSS,high polyreactivity
8,QFQLVESGGGLVQAGSRLRLICAASGSTFKYYTMGWYRQAPGKERELVATIRGSGTTYADSVKGRFTISRDNAKNTVYLQMNSLKPEDTAVYYCARLPPADMDYWGQATQVTVSS,low polyreactivity
9,QVHLVESGGCLVQAGGSLRLSCAASGSTFPSYAMGWYRQAPGKERELVAAINSGGGTNYADSVKGRFTITRDNAKNTVYLQLNILKPEDSAVYYGAADVWKLYDYWGQGTQVTVSS,low polyreactivity
10,QVQLVESGGGLVQAGGSLRLSCAASGYTFFTNVMGWYRKAPGKERELVATITAGGSTYADSVKGRFTISRDNAKNTFYLQMNSLKPEDTAVYYCAVDALTGAWLGGYPYWADGYDYWGQGTQVTVSS,low polyreactivity
11,QVQLVESGGGLVQAGGSLRLSCAASGSTFYINTMGWYRQAPGKEREFVAAITWSGGSTYYADSVKGRFTISRDNAKNTVYLQMNSLKPEDTAVYYCAADLYVGDMDYWGQGTQVTVAS,low polyreactivity
12,QVQLVESGGGVVQAGRSLRISCAASGSTFRGYAMGWYRQAPGKDRELVATISGSDGTTYYADSVKGRFTISRDYAKNTVYLQMNCLNPEDTAVFYCDAGESFEMYYWGQGSQVTVSS,low polyreactivity
13,QVQLVESGGGLVQAGGSLRLSCAASGSIFSDYAMGWYRQAPGEERELVAAINSGVSTSYADSVKGRFTISRDNAKNTVYLQMNSLKPEDTAVYYCAKDGSSPSPWYGGFGYWGQGTQVTVSS,low polyreactivity
14,QVQLVESGGGLVQAGGSLRLSCAASGSTFDRYTMGWYRQAPGKERELVAAISESDGSTYYADSVKGRFTISRDNAKNTVYLLMNSLKPEDTAVYFCAAEWTHYWWYQYDFWGQGTQVTVSS,high polyreactivity
15,QVQLVESGGGLVQAGGSLRLSCAASGYIFWENAMGWYRQAPGKERELVAAITVSGGGTYYADSVKGRFTISRDNAKNTVYLQMNSLKPEDTAVYYCAADEDNPWLWFYYWGQGTQVTVSS,low polyreactivity
16,QVQLVESGGGLVQAGGSLRLSCAGSGRIFFWYVMGWYRQAPGKERELVAAISSGGRTYYADSVKGRFTISRDNAKNTVYLQMNSLKPEDTAVYYCAAVRRYLKAAYGYWGQGTQVTVSS,low polyreactivity
17,QVQLVESGGGLVQAGGSLRLSCAASGSIFRYYAMGWYRQAPGKERELVAAISGSGASTYYADSVKGRFTISRDNAKNTVYLQMNSLKPEDTEVYFCAAYRGPRHHYPSVYNWGYDYWGQGTQVTVSS,high polyreactivity
18,QVQLVESGGGLVQAGGSLRLSCAASVRIYPYYDRGWYRQAPGKDRELVASTNYADSVKGRFTISRDNAKNTVYLQMNSLKPEDTAVYYCNKRIYGWGGSRYDYWGQGTQVTVSS,low polyreactivity
19,QVQLVESGGGLVQAGGSLRLSCAASGIILRYYAMGWYRQAPGKERELVAAITRGGSTNYADSVKGRFTISRDNAKNTVYLQMNSLKPEVTAVYYCAADVVFWFSNVAWRDFGYWGQGTQVTVSS,low polyreactivity
20,QVQLVESGGGLVQAGGSLRLSCAASGSIFGDYAMGWYRQAPGKERELVADISSGGSTTYADSVKGRFTISRDNAKNTVYLQMNSLKPEDTAVYYCNAERGVPYGYWGQGTQVTVSS,low polyreactivity
21,QVQLVESGGGLVQAGGSLRLSCAASGTISAYAMGWYRQAPGKERELVAAITRTGGSTYYADSVKGRFTISRDNAKNTVYLQMNSLKPEDTAVYYCATEFRYREFYYWGQGTQVTVSS,high polyreactivity
